{
  "source": "patent US20170233490A1",
  "about": "(Hoffmann-La Roche, published 2017)",
  "key": {"[1]": {"target": "T1, human HER3 Extracellular Domain (ECD) (human, UniProt P21860 20-643)", "T1 construct": "human recombinant, 68 kDa; 'closed' conformation without ligand; also called Her3 ECD; Her-3 ECD", "experiment": "SPR (Biacore) sensorgram overlay; the legend gives 100 nM, antibody * Her-3 ECD interaction without Heregulin; buffer reference (curve 5) stays at 0 RU"}, "[2]": {"target": "T2, human HER4 Extracellular Domain (ECD) (human, UniProt Q15303 26-651)", "T2 construct": "also called Her4 ECD; HER4-ECD", "T2 sequence": "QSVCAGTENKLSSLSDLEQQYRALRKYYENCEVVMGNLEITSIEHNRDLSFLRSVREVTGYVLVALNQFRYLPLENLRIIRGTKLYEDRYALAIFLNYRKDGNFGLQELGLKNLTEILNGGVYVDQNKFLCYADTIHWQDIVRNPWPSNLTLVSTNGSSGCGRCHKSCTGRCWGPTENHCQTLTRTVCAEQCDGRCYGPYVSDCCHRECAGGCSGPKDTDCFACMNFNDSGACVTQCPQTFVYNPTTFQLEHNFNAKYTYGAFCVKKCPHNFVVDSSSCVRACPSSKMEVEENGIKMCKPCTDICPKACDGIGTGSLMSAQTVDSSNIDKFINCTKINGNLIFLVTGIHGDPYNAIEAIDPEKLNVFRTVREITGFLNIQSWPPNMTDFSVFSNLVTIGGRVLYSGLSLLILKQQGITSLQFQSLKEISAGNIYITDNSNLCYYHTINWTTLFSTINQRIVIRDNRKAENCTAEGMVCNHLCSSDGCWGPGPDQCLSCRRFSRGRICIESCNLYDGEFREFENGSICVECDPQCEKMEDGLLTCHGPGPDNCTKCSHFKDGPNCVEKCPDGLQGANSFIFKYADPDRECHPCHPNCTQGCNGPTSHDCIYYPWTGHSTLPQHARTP", "experiment": "stated in the epitope binning example"}, "[3]": {"target": "T3, HER3 ECD-HRG complex (human, UniProt P21860 20-643)", "T3 construct": "HER3 ECD preincubated with a 3- to 6-fold molar excess of Heregulin ('open' conformation); biotinylated Her3-ECD in the ribosome display; also called HER3-ECD/HRG1β", "experiment": "SPR (Biacore B3000, 25 °C), antibody captured by RAM-Fcγ; 90 nM Heregulin*Her-3 ECD complex injected", "description": "A CMS series sensor was mounted into the system and was normalized in HBS-ET buffer (10 mM HEPES pH 7.4, 150 mM NaCl, 3 mM EDTA, 0.005% w/v Tween 20) according to the manufacturer's instructions. The sample buffer was the system buffer supplemented with 1 mg/ml CMD (Carboxymethyldextran). The system operated at 25° C. 10000 RU RAM-Fcγ (relative units of Fcγ-fragment Rabbit Anti-Mouse IgG/Jackson Laboratories) were immobilized according to the manufacturer's instructions using EDC/NHS chemistry on all flow cells. The sensor was deactivated using 1M ethanolamine. Analytes in solution were injected at 100 μl/min at different concentration steps of 0 nM, 1.1 nM, 3.7 nM, 11.1 nM, 33.1 nM and 90 nM for 2 min. The dissociation was monitored for 5 min. Acidic regeneration of the sensor surface was achieved using three consecutive injections of 10 mM Glycine pH 1.7 at 30 μl/min for 60 sec. Kinetic data were evaluated according to a Langmuir fit."}, "[4]": {"target": "T3, HER3 ECD-HRG complex", "experiment": "SPR Biacore 3000, 37 C"}, "[5]": {"target": "T1, human HER3 Extracellular Domain (ECD)", "experiment": "SPR Biacore 3000, 37 C"}, "[6]": {"target": "T2, human HER4 Extracellular Domain (ECD)", "experiment": "SPR Biacore 3000, 37 C"}, "[7]": {"target": "T4, HER4 ECD-HRG complex (human, UniProt Q15303 26-651)", "T4 construct": "HER4 ECD preincubated with a 5-fold molar excess of Heregulin", "T4 sequence 1": "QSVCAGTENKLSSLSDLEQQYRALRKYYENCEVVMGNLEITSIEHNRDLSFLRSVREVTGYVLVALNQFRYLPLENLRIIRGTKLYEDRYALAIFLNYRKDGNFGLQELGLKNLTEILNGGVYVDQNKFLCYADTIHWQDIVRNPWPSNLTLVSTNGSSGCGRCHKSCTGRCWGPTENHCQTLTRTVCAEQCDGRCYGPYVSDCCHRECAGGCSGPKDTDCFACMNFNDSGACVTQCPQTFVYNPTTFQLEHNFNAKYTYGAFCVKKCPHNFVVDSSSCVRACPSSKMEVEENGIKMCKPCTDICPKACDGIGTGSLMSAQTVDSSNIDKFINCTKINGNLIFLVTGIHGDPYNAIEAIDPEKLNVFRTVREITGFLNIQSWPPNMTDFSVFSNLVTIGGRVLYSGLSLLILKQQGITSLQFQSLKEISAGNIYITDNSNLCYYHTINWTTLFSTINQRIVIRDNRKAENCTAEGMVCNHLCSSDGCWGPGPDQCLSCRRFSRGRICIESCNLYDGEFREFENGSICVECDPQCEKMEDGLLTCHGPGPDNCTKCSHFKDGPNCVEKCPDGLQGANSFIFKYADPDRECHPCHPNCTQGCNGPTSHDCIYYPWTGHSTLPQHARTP", "T4 sequence 2": "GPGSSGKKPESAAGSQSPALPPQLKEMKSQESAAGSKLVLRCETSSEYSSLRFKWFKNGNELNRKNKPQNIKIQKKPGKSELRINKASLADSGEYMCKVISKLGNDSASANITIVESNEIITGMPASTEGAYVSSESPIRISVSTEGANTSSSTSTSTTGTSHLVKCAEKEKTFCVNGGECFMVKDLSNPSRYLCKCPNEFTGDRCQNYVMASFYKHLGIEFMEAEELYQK", "experiment": "SPR Biacore 3000, 37 C"}},
  "data": [
    {"binder": "anti-HER3 antibody M-08-11 (antibody, V domains shown, also called M-011; <Her3> M-08-11) VH: QAYLQQSGAELMRPGASVRMSCQASGYTFTSYTIHWLKQTPRQGLEWIGAIYPRNGDFSYNQKFKDKASLTVDTSSSTAYMHLSSLTSEDSAVYFCARTINYGDWFAYWGQGTLVTVSA VL: DIQMIQSPASLFVSEGETVIITCRASENIYSNLAWYHQKKGKSPQVLVYAAIKLADGVPLRFSGSGSGTQFSLKINSLQSEDFGSYYCQHFWGPPYTFGSGTNLEIK", "values": [
      {"measurement": "binding result", "setting": "[1]", "result": "binds"},
      {"measurement": "binding result", "setting": "[2]", "result": "no binding"},
      {"measurement": "binding result", "setting": "[3]", "result": "binds"}
    ]},
    {"binder": "humanized variant VH-A/VL-D of anti-HER3 antibody M-05-74 (antibody, V domains shown, also called humanized DIB-74) VH: QVQLVQSGAELKKPGASVKVSCRTSGYTLTDYWIHWVRQAPGQGLEWMGYINPYTGYTESNQKFKDRVAMTRDASINTAYMELTSLRSDDTAVYYCARPYYYGDYWGQGTLVTVSS VL: EIVLTQSPATLSLSPGERATLSCSASSSVSYMHWFQQKPGQPPRLLIYSTSNLASGIPARFSGSGSGTDFTLTISSLEPEDFAVYYCQQRSSYPFTFGGGTKVEIK", "values": [
      {"measurement": "Kd", "setting": "[4]", "result": 10, "unit": "nM"},
      {"measurement": "MR", "setting": "[4]", "result": 0.8},
      {"measurement": "koff", "setting": "[4]", "result": 0.002, "unit": "s⁻¹"},
      {"measurement": "kon", "setting": "[4]", "result": 190000, "unit": "M⁻¹ s⁻¹"},
      {"measurement": "t/2diss", "setting": "[4]", "result": 6, "unit": "min"},
      {"measurement": "Kd", "setting": "[5]", "result": 23, "unit": "nM"},
      {"measurement": "MR", "setting": "[5]", "result": 0.7},
      {"measurement": "koff", "setting": "[5]", "result": 0.00044, "unit": "s⁻¹"},
      {"measurement": "kon", "setting": "[5]", "result": 19000, "unit": "M⁻¹ s⁻¹"},
      {"measurement": "t/2diss", "setting": "[5]", "result": 26, "unit": "min"},
      {"measurement": "binding result", "setting": "[6]", "result": "no binding"},
      {"measurement": "Kd", "setting": "[7]", "result": 211, "unit": "nM"},
      {"measurement": "MR", "setting": "[7]", "result": 0.8},
      {"measurement": "koff", "setting": "[7]", "result": 0.038, "unit": "s⁻¹"},
      {"measurement": "kon", "setting": "[7]", "result": 180000, "unit": "M⁻¹ s⁻¹"},
      {"measurement": "t/2diss", "setting": "[7]", "result": 0.3, "unit": "min"}
    ]}
  ]
}
